Data taken from the supplement of paper PMC10724198.
± gives the standard deviation of the averaged measurements.

What follows are sequences tested on Saccharomyces cerevisiae (assay: protein stability index of tFT-peptide fusion (C-terminal peptide) (PSI (0-1 scale)); higher = more stable (slower turnover)). Details: genetic background: wild type; temperature: 30 C.
Experimental: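 Multiplexed protein stability (MPS) profiling in S. cerevisiae. Random 12-aa peptides (tFT-X12 library) are fused to the C-terminus of a sfGFP-mCherry tandem fluorescent timer, after mCherry and a GGGS linker. Cells are FACS-sorted into 8 mCherry/sfGFP bins and deep-sequenced. The protein stability index (PSI) is the read-weighted bin average, scaled from 0 (unstable) to 1 (stable). Only peptides with >10 reads are reported; cells were grown at 30 °C in SC-His with glucose.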
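Note: PSI is a weighted mean of sequencing reads over stability bins, variants kept only with over 10 reads, mCherry proximal and sfGFP distal, peptide attached via GGGS linker.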

Sequence	protein stability index
HPTFARIPPIPP	0.525 ± 0.0088
HPTHTPPSTHRD	0.7316 ± 0.0053
HPTLPPHPPPHP	0.768 ± 0.036
HPTRHPPTPPCY	0.704 ± 0.018
HQCVNLNTIKWV	0.634 ± 0.021
HQVSLVLGGYLL	0.702 ± 0.0099
HRCQRGLIARPR	0.665 ± 0.016
HRGAVRGGSEIW	0.729 ± 0.033
HRTKRPKTKRPP	0.628 ± 0.036
HRYRWPGLNSRL	0.837 ± 0.12
HSFNITSESQKI	0.653 ± 0.0066
HSLPPLRPYPSP	0.7553 ± 0.00076
HSLRLPPSVHFP	0.6797 ± 0.004
HSLRPPPPPAPT	0.7146 ± 0.0045
HSNGADTFSEGE	0.648 ± 0.033
HSPILQPSLPHP	0.71 ± 0.022
HSPPRPPFHPRF	0.70091 ± 0.0004
HSRPAAPCRSPL	0.679 ± 0.013
HSRRCDGLPGWV	0.671 ± 0.03
HSTGPRPKLGCQ	0.827 ± 0.019
HSYMFIRNTIRI	0.6281 ± 0.0031
HSYSPRSLLVDP	0.727 ± 0.039
HTGKAATRKVIK	0.634 ± 0.024
HTKNCTRAVSDR	0.673 ± 0.085
HTPPLPPPPDPT	0.723 ± 0.061

Sequence	protein stability index
HTPPPPRHPYKH	0.741 ± 0.055
HVGEVESGGMGG	0.707 ± 0.03
HVLFPLHPNRIP	0.6609 ± 0.0016
HVMLPFTGIGKF	0.672 ± 0.06
HVNGQWEANRRT	0.697 ± 0.048
HVPQPNTVCPHL	0.754 ± 0.033
HVTRGMTHLTLF	0.635 ± 0.036
HVTSTRGARRPS	0.715 ± 0.019
HVVSSGFLVGLG	0.671 ± 0.039
HWSMRVNRTEGG	0.663 ± 0.055
HWYFARTSTVSC	0.5505 ± 0.0015
HYLYSLLVLPPL	0.658 ± 0.046
IAATTVVRPAFC	0.66 ± 0.0083
IACPPSVIFSPH	0.713 ± 0.058
IAEFRRDKIVKR	0.706 ± 0.07
IAFFFLHIPPAF	0.569 ± 0.076
IAGKAIKNMTRR	0.676 ± 0.052
IAGRPSSGFPLL	0.686 ± 0.066
IALVFCPMNGRI	0.686 ± 0.014
IARENLNRSRFS	0.6602 ± 0.0056
IATDGARCACDP	0.688 ± 0.022
IATMSVAGGPRL	0.677 ± 0.015
ICGAGPKCCCSV	0.635 ± 0.051
ICIGRDISNQSC	0.703 ± 0.021
ICLPPVSDVLIR	0.676 ± 0.0084

Sequence	protein stability index
ICVSGALMARAL	0.6798 ± 0.0036
IDFISSVLSYLS	0.663 ± 0.013
IDKRWVKKGGDK	0.64 ± 0.071
IDLGWSRWGALA	0.662 ± 0.086
IDPPSLCTPPPP	0.635 ± 0.034
IDSKSPTHPLHQ	0.71 ± 0.059
IDSSLERVRQHS	0.677 ± 0.058
IDYCWLPDGYQM	0.683 ± 0.068
IECKKIDKKIKE	0.688 ± 0.035
IEIGTEEGKCTT	0.707 ± 0.053
IEKKKIDNKVKS	0.712 ± 0.079
IEKYRKNKKTGK	0.677 ± 0.016
IENKKEKKIMIE	0.6652 ± 0.0037
IETQKNNKLRRL	0.699 ± 0.015
IEVSRRDLRIHL	0.6949 ± 0.0032
IEWGPITTLTQT	0.718 ± 0.02
IFFFFHSPYFFS	0.68 ± 0.018
IFGCPEFFCFLL	0.696 ± 0.061
IFLLLHSPSSAS	0.697 ± 0.014
IFPVFHPPFVVI	0.557 ± 0.05
IFWGFSFRGWGC	0.683 ± 0.015
IFYTHRSLSGNL	0.659 ± 0.036
IGCSELSGLGGY	0.769 ± 0.12
IGCTRSREESRE	0.689 ± 0.013
IGFLGYTRSIRN	0.617 ± 0.096

Sequence	protein stability index
IGGFGVRIYFGG	0.627 ± 0.056
IGLCGWVSGAAT	0.7274 ± 0.0069
IGLSPICAAAYT	0.6515 ± 0.001
IGTSGFFSSQAS	0.743 ± 0.065
IIKKKKKIKRNN	0.683 ± 0.014
IKACGLRSFIKS	0.69 ± 0.059
IKIKKKKKKRHR	0.651 ± 0.059
IKIRIAANRTKY	0.63796 ± 0.00029
IKKIEKANRKTK	0.661 ± 0.034
IKKKKKKESRSS	0.693 ± 0.065
IKKKKKKKQRKQ	0.65 ± 0.069
IKKKNRKERQKK	0.678 ± 0.015
IKKTKNKETKKT	0.676 ± 0.045
IKMKRMTKIKKK	0.745 ± 0.049
IKNIKKKKSKTE	0.702 ± 0.065
IKRLNNEKSSKA	0.676 ± 0.035
IKSKERLKKRQS	0.6679 ± 0.00067
IKTQKNKQITKI	0.705 ± 0.071
IKVNAVAWLFGS	0.582 ± 0.032
ILFKSTRAICSL	0.621 ± 0.051
ILGDGRLRLISF	0.682 ± 0.05
ILILDTKPISKT	0.7258 ± 0.006
ILLFLRCFSGFF	0.5619 ± 0.0046
